Experiment [1] concerns the target C-terminal region of RING1B (C-RING1B), residues 222–336, with C-terminal hexahistidine tag (human) (UniProt Q99496). The experiment in a line: SPR. In general terms: In SPR one partner is held on a chip, and binding of the other changes the refractive index at the surface.
The target of experiment [2] is RING1B C-terminal domain (C-RING1B) (Homo sapiens) (UniProt Q99496). Particulars: cited from earlier work.
In experiment [3] the target is C-terminal region of RING1B (C-RING1B), residues 222–336, with C-terminal hexahistidine tag (human) (UniProt Q99496). The experiment is described as follows: native gel or EMSA. For orientation: In EMSA bound probe runs differently from free probe, usually more slowly.
The target in experiment [4] is cbx7 cbox domain with C-terminal hexahistidine tag (human). The experiment in a line: AUC.

We go through 7 molecules from publication PMC4442619.

What is called Kd is the equilibrium constant for the complex coming apart. For the molecule “MBP–Drosophila Pc cbox domain fusion protein (from UniProt P26017 1-390) (domain or fragment)”, the Kd in experiment [1] amounted to 38 nM.

“MBP–cbx6 cbox domain fusion protein (from UniProt O95503 1-412) (domain or fragment)” registered a Kd in experiment [1] of 180 nM.

In experiment [1], “MBP–cbx7 cbox domain fusion protein (from UniProt O95931 1-251) (domain or fragment)” came in with a Kd of 9.2 nM.

In turn, “MBP–cbx8 cbox domain fusion protein (from UniProt Q9HC52 1-389) (domain or fragment)” gave a Kd in experiment [1] of 180 nM.

With “RING1B C-terminal domain (C-RING1B) (from UniProt Q99496)”, the Kd in experiment [2] is 200 µM.

As usually defined, the stoichiometry N is the number of molecules, sites or subunits per partner or assembly. In experiment [3], cbx6 cbox domain (domain or fragment) returned a stoichiometry N of 1.

B1: C-RING1B (residues 222–336) with C-terminal SRD sequence, coexpressed with the cbx7 cbox domain (domain or fragment)
chain: MEKTRGASEIELVFRPHPTLMEKDDSAQTRYIKTSGNATVDHLSKYLAVRLALEELRSKGESNQMNLDTASEKQYTIYIATASGQFTVLNGSFSLELVSEKYWKVNKPMELYYAPTKEHKSRD
B1 came in with a stoichiometry N in experiment [4] of 1.
